Test [1] addresses T1, muscle actin (UniProt P68135 1-377, labeled with pyrene). Kind of test: seeded actin assembly kinetics.
The target in test [2] is T1, muscle actin. Description: apparent critical concentration for actin polymerization at steady state.
Test [3] has as its target T1, muscle actin. The test is described as above. The source holds these as a separate data set.

Some results are limits rather than exact numbers.

B1: Cap1Δ(239–268)/Cap2Δ(264–287) (complex)
chain 1: MSSSKFEEVINKIINDSPPGELREVYDDLIKITSENSKNTILDAIENYNVQNCIPIEVNGNSVIISKYNKEGAKFFDPVNSVIFSVNHLERKGLDIEPYEFTHAKIEKGQLKELHDKLHEYLLQSFPGDVSFAVYPVPEEISKISIIIVSTKYNPNNFWNGHWRSSYIYDLETRELSGQISTQVHYYEDGNVSFQSGKDINQSNVDDVVCTIRDIETNFENDLDLSFFDLNEKQFKAL
chain 2: MSDAQFDAALDLLRRLNPTTLQENLNNLIELQPNLAQDLLSSVDVPLSTQKDSADSNREYLCCDYNRDIDSFRSPWSNTYYPELSPKDLQDSPFPSAPLRKLEILANDSFDVYRDLYYEGGISSVYLWDLNEEDFNGHDFAGVVLFKKNQSDHSNWDSIHVFEVTTSPSSPDSFNYRVTTTIILHLDKTKTDQNSHMMLSGNLTRQTEKDIAIDMSRPLDVIFTSHVANLGSLIEDIESQMRNLLETVYFEKTRDIFHQTKNA
Consider B1, for which, in the test with muscle actin [1], the Kd was determined as 33400 nM; the koff (commonly the rate constant with which the complex falls apart) was 0.012 s⁻¹; the kon (in general, the rate constant with which the complex forms) came to 370 M⁻¹ s⁻¹.

B2: Cap1(Δ239–268)/Cap2(Δ261–287) (complex)
chain 1: MSSSKFEEVINKIINDSPPGELREVYDDLIKITSENSKNTILDAIENYNVQNCIPIEVNGNSVIISKYNKEGAKFFDPVNSVIFSVNHLERKGLDIEPYEFTHAKIEKGQLKELHDKLHEYLLQSFPGDVSFAVYPVPEEISKISIIIVSTKYNPNNFWNGHWRSSYIYDLETRELSGQISTQVHYYEDGNVSFQSGKDINQSNVDDVVCTIRDIETNFENDLDLSFFDLNEKQFKAL
chain 2: MSDAQFDAALDLLRRLNPTTLQENLNNLIELQPNLAQDLLSSVDVPLSTQKDSADSNREYLCCDYNRDIDSFRSPWSNTYYPELSPKDLQDSPFPSAPLRKLEILANDSFDVYRDLYYEGGISSVYLWDLNEEDFNGHDFAGVVLFKKNQSDHSNWDSIHVFEVTTSPSSPDSFNYRVTTTIILHLDKTKTDQNSHMMLSGNLTRQTEKDIAIDMSRPLDVIFTSHVANLGSLIEDIESQMRNLLETVYFEKTRDIFHQT
In the case of B2, the Kd with muscle actin [2] was at least 100000 nM.

B3: wild-type yeast capping protein (Cap1/Cap2) (complex)
chain 1: MSSSKFEEVINKIINDSPPGELREVYDDLIKITSENSKNTILDAIENYNVQNCIPIEVNGNSVIISKYNKEGAKFFDPVNSVIFSVNHLERKGLDIEPYEFTHAKIEKGQLKELHDKLHEYLLQSFPGDVSFAVYPVPEEISKISIIIVSTKYNPNNFWNGHWRSSYIYDLETRELSGQISTQVHYYEDGNVSFQSGKDINQSNVDDVVCTIRDIETNFENDLDLSFFDLNEKQFKALRRRLPVTRSKINWGSAIGSYRLGKNAAEGK
chain 2: MSDAQFDAALDLLRRLNPTTLQENLNNLIELQPNLAQDLLSSVDVPLSTQKDSADSNREYLCCDYNRDIDSFRSPWSNTYYPELSPKDLQDSPFPSAPLRKLEILANDSFDVYRDLYYEGGISSVYLWDLNEEDFNGHDFAGVVLFKKNQSDHSNWDSIHVFEVTTSPSSPDSFNYRVTTTIILHLDKTKTDQNSHMMLSGNLTRQTEKDIAIDMSRPLDVIFTSHVANLGSLIEDIESQMRNLLETVYFEKTRDIFHQTKNAAIASSAEEANKDAQAEVIRGLQSL
B3: in the test with muscle actin [1], the Kd was 1.2 nM, the koff is 0.00156 s⁻¹ and the kon worked out at 1.16e+06 M⁻¹ s⁻¹. For the same molecule, the Kd with muscle actin [3] is 4 nM.

B4: Cap1/Cap2Δ(261–287) (complex)
chain 1: MSSSKFEEVINKIINDSPPGELREVYDDLIKITSENSKNTILDAIENYNVQNCIPIEVNGNSVIISKYNKEGAKFFDPVNSVIFSVNHLERKGLDIEPYEFTHAKIEKGQLKELHDKLHEYLLQSFPGDVSFAVYPVPEEISKISIIIVSTKYNPNNFWNGHWRSSYIYDLETRELSGQISTQVHYYEDGNVSFQSGKDINQSNVDDVVCTIRDIETNFENDLDLSFFDLNEKQFKALRRRLPVTRSKINWGSAIGSYRLGKNAAEGK
chain 2: MSDAQFDAALDLLRRLNPTTLQENLNNLIELQPNLAQDLLSSVDVPLSTQKDSADSNREYLCCDYNRDIDSFRSPWSNTYYPELSPKDLQDSPFPSAPLRKLEILANDSFDVYRDLYYEGGISSVYLWDLNEEDFNGHDFAGVVLFKKNQSDHSNWDSIHVFEVTTSPSSPDSFNYRVTTTIILHLDKTKTDQNSHMMLSGNLTRQTEKDIAIDMSRPLDVIFTSHVANLGSLIEDIESQMRNLLETVYFEKTRDIFHQT
In the test with muscle actin [1], B4 came in with a Kd of 7.8 nM, a dissociation rate constant (koff) of 0.0163 s⁻¹ and a kon of 2.09e+06 M⁻¹ s⁻¹. For the same molecule, the Kd with muscle actin [3] is 25 nM.

B5: Cap1/Cap2Δ(264–287) (complex)
chain 1: MSSSKFEEVINKIINDSPPGELREVYDDLIKITSENSKNTILDAIENYNVQNCIPIEVNGNSVIISKYNKEGAKFFDPVNSVIFSVNHLERKGLDIEPYEFTHAKIEKGQLKELHDKLHEYLLQSFPGDVSFAVYPVPEEISKISIIIVSTKYNPNNFWNGHWRSSYIYDLETRELSGQISTQVHYYEDGNVSFQSGKDINQSNVDDVVCTIRDIETNFENDLDLSFFDLNEKQFKALRRRLPVTRSKINWGSAIGSYRLGKNAAEGK
chain 2: MSDAQFDAALDLLRRLNPTTLQENLNNLIELQPNLAQDLLSSVDVPLSTQKDSADSNREYLCCDYNRDIDSFRSPWSNTYYPELSPKDLQDSPFPSAPLRKLEILANDSFDVYRDLYYEGGISSVYLWDLNEEDFNGHDFAGVVLFKKNQSDHSNWDSIHVFEVTTSPSSPDSFNYRVTTTIILHLDKTKTDQNSHMMLSGNLTRQTEKDIAIDMSRPLDVIFTSHVANLGSLIEDIESQMRNLLETVYFEKTRDIFHQTKNA
Consider B5, for which, in the test with muscle actin [1], the Kd was 8 nM, the koff was found to be 0.017 s⁻¹ and the kon is 2.1e+06 M⁻¹ s⁻¹. Besides, the Kd with muscle actin [3] was 25 nM.

B6: Cap1 (R239A)/Cap2 (complex)
chain 1: MSSSKFEEVINKIINDSPPGELREVYDDLIKITSENSKNTILDAIENYNVQNCIPIEVNGNSVIISKYNKEGAKFFDPVNSVIFSVNHLERKGLDIEPYEFTHAKIEKGQLKELHDKLHEYLLQSFPGDVSFAVYPVPEEISKISIIIVSTKYNPNNFWNGHWRSSYIYDLETRELSGQISTQVHYYEDGNVSFQSGKDINQSNVDDVVCTIRDIETNFENDLDLSFFDLNEKQFKALARRLPVTRSKINWGSAIGSYRLGKNAAEGK
chain 2: MSDAQFDAALDLLRRLNPTTLQENLNNLIELQPNLAQDLLSSVDVPLSTQKDSADSNREYLCCDYNRDIDSFRSPWSNTYYPELSPKDLQDSPFPSAPLRKLEILANDSFDVYRDLYYEGGISSVYLWDLNEEDFNGHDFAGVVLFKKNQSDHSNWDSIHVFEVTTSPSSPDSFNYRVTTTIILHLDKTKTDQNSHMMLSGNLTRQTEKDIAIDMSRPLDVIFTSHVANLGSLIEDIESQMRNLLETVYFEKTRDIFHQTKNAAIASSAEEANKDAQAEVIRGLQSL
In the test with muscle actin [1], B6 displayed a Kd of 176 nM, a koff of 0.0275 s⁻¹ and a kon of 156000 M⁻¹ s⁻¹. Moreover, the Kd with muscle actin [3] amounted to 400 nM.

B7: Cap1 (W251A)/Cap2 (complex)
chain 1: MSSSKFEEVINKIINDSPPGELREVYDDLIKITSENSKNTILDAIENYNVQNCIPIEVNGNSVIISKYNKEGAKFFDPVNSVIFSVNHLERKGLDIEPYEFTHAKIEKGQLKELHDKLHEYLLQSFPGDVSFAVYPVPEEISKISIIIVSTKYNPNNFWNGHWRSSYIYDLETRELSGQISTQVHYYEDGNVSFQSGKDINQSNVDDVVCTIRDIETNFENDLDLSFFDLNEKQFKALRRRLPVTRSKINAGSAIGSYRLGKNAAEGK
chain 2: MSDAQFDAALDLLRRLNPTTLQENLNNLIELQPNLAQDLLSSVDVPLSTQKDSADSNREYLCCDYNRDIDSFRSPWSNTYYPELSPKDLQDSPFPSAPLRKLEILANDSFDVYRDLYYEGGISSVYLWDLNEEDFNGHDFAGVVLFKKNQSDHSNWDSIHVFEVTTSPSSPDSFNYRVTTTIILHLDKTKTDQNSHMMLSGNLTRQTEKDIAIDMSRPLDVIFTSHVANLGSLIEDIESQMRNLLETVYFEKTRDIFHQTKNAAIASSAEEANKDAQAEVIRGLQSL
In the test with muscle actin [1], B7 registered a Kd of 91 nM, a koff of 0.0259 s⁻¹ and a kon of 300000 M⁻¹ s⁻¹. In the test with muscle actin [3], the Kd amounted to 250 nM.
